Measured values from patent US20260092093A1 (TJ BIOPHARMA SHANGHAI, published 2026).
Substitutions are numbered along the chain they refer to.

B1: IL-18 variant polypeptide M38 (ligand)
chain: YFPKLSSKLSVIRNLNDQVLFIDQGNRPLFEDMTDSDCRDNAPRTIFIISMYKWSGARGMAVTISVKCEKISTLSCENKIISFKEMNPPDVIKDTKSDIIFFQISVPGHDNKMQFESSSYEGYFLACEKERDLFKLILKKEDELGDRSIMFTVQNED
B2: IL-18 variant polypeptide M39 (ligand)
chain: B1 chain with S6R, G56P, A57G, I104L
B3: IL-18 variant polypeptide LM3 (ligand)
chain: B1 chain with S6R, V11I, W54G, V91G, I104R
B4: IL-18 variant polypeptide LM4 (ligand)
chain: B1 chain with S6K, W54H, G56Y, A57S, V91N, I104R
B5: IL-18 variant polypeptide M1 (ligand)
chain: B1 chain with S6K, W54H, G56D, A57R, I104V
B6: IL-18 variant polypeptide LM5 (ligand)
chain: B1 chain with P3G, S6R, G56S, A57Q, V91N, I104R
B7: IL-18 variant polypeptide WM2 (ligand)
chain: B1 chain with S6R, W54D, G56Q, A57P, V91N, K96E, I104R
B8: IL-18 variant polypeptide M40 (ligand)
chain: B1 chain with P3D, S6K, W54P, G56S, A57W, V91W, I104R
B9: IL-18 variant polypeptide MM2 (ligand)
chain: B1 chain with P3A, S6Y, W54R, G56S, A57L, V91G, I104R
B10: IL-18 variant polypeptide MM6 (ligand)
chain: B1 chain with P3A, S6Y, W54R, G56S, A57L, V91A, I104R
B11: IL-18 variant polypeptide MM1 (ligand)
chain: B1 chain with S6K, W54L, G56T, A57Q, I104R
B12: IL-18 variant polypeptide LM2 (ligand)
chain: B1 chain with S6R, W54L, A57S, I104R
B13: IL-18 variant polypeptide LM1 (ligand)
chain: B1 chain with S6K, W54G, V91N, I104R
B14: IL-18 variant polypeptide MM4 (ligand)
chain: B1 chain with S6R, W54L, G56T, A57I, V91G, I104R

The binders below were run against T1, hIL-18 receptor (hIL-18Rα and hIL-18Rβ) (human, UniProt Q13478 19-541; O95256 20-599) (assay: cell-based or functional assay).
T1 sequence (looked up) 1: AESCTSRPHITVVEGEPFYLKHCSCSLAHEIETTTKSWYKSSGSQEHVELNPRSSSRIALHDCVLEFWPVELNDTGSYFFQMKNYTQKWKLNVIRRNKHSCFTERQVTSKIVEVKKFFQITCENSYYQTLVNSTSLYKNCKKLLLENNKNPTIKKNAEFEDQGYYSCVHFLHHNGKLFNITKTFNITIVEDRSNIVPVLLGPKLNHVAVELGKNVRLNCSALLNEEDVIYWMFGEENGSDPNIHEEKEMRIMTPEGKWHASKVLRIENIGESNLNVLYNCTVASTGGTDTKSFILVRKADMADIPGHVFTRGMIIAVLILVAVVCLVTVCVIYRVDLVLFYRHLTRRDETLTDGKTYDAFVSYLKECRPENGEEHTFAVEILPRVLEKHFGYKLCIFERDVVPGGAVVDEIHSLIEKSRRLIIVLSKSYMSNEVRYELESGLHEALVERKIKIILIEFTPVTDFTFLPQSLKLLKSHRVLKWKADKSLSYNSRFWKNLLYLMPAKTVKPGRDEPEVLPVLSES
T1 sequence (looked up) 2: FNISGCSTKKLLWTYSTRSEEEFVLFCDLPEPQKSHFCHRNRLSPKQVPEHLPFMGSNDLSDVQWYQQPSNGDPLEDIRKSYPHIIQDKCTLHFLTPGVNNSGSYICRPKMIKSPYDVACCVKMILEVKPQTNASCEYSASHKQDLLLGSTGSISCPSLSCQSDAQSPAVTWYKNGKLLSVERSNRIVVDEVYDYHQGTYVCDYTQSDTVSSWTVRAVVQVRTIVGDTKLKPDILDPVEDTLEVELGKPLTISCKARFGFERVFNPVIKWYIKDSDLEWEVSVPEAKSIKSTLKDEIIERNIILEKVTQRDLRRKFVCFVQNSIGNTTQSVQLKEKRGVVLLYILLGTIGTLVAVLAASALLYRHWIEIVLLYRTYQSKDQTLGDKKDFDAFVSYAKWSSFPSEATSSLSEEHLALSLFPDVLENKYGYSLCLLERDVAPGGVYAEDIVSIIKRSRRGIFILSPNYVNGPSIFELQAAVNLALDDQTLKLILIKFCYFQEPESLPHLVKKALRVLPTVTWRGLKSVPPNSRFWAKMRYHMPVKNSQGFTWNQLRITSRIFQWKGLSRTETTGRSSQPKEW
B1 was tested, and the “EC50 (nM), hIL-18 reporter assay” value was 0.57 nM. For B2, the “EC50 (nM), hIL-18 reporter assay” value was 0.3 nM. In the case of B3, the “EC50 (nM), hIL-18 reporter assay” value is reported as 0.052 nM. In the case of B4, the “EC50 (nM), hIL-18 reporter assay” value is reported as 0.16 nM. B5 was tested, and the “EC50 (nM), hIL-18 reporter assay” value was 1.45 nM. In the case of B6, the “EC50 (nM), hIL-18 reporter assay” value is reported as 0.13 nM. B7 was tested, and the “EC50 (nM), hIL-18 reporter assay” value was 10.7 nM. B8 was tested, and the “EC50 (nM), hIL-18 reporter assay” value was 0.12 nM. B9 was tested, and the “EC50 (nM), hIL-18 reporter assay” value was 0.93 nM. With B10 the “EC50 (nM), hIL-18 reporter assay” value was 1 nM. In the case of B11, the “EC50 (nM), hIL-18 reporter assay” value is reported as 0.97 nM. For B12, the “EC50 (nM), hIL-18 reporter assay” value was 0.11 nM. For B13, the “EC50 (nM), hIL-18 reporter assay” value was 0.076 nM. In the case of B14, the “EC50 (nM), hIL-18 reporter assay” value is reported as 0.13 nM.

The binders below were run against T2, hIL-18BP-hFc (human, UniProt O95998 31-194, limits assumed) (assay: cell-based or functional assay).
T2 sequence (looked up): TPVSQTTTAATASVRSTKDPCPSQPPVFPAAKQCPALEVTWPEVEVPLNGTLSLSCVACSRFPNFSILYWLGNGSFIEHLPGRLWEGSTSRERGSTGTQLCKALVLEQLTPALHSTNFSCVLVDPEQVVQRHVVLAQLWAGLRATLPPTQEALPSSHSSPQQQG
For B1, the “EC50 (nM) in the Presence of 1 µg/mL hIL-18BP-hFc, hIL-18 reporter assay” value (shortened to “EC50 (nM) in the Presence”) was 1.2 nM and the “EC50 Fold Change (+BP/-BP), hIL-18 reporter assay” value (“EC50 Fold Change (+BP/-BP)” for short) was 2.11 fold. B2 was tested, and the “EC50 (nM) in the Presence” value was 0.44 nM and the “EC50 Fold Change (+BP/-BP)” value was 1.47 fold. With B3 the “EC50 (nM) in the Presence” value was 0.069 nM and the “EC50 Fold Change (+BP/-BP)” value was 1.33 fold. B4 was tested, and the “EC50 (nM) in the Presence” value was 0.17 nM and the “EC50 Fold Change (+BP/-BP)” value was 1.06 fold. B5 was tested, and the “EC50 (nM) in the Presence” value was 3.45 nM and the “EC50 Fold Change (+BP/-BP)” value was 2.38 fold. In the case of B6, the “EC50 (nM) in the Presence” value is reported as 0.12 nM and the “EC50 Fold Change (+BP/-BP)” value is reported as 0.92 fold. In the case of B7, the “EC50 (nM) in the Presence” value is reported as 14.2 nM and the “EC50 Fold Change (+BP/-BP)” value is reported as 1.32 fold. With B8 the “EC50 (nM) in the Presence” value was 0.16 nM and the “EC50 Fold Change (+BP/-BP)” value was 1.33 fold. With B9 the “EC50 (nM) in the Presence” value was 2.24 nM and the “EC50 Fold Change (+BP/-BP)” value was 2.41 fold. B10 was tested, and the “EC50 (nM) in the Presence” value was 1.5 nM and the “EC50 Fold Change (+BP/-BP)” value was 1.5 fold. In the case of B11, the “EC50 (nM) in the Presence” value is reported as 0.81 nM and the “EC50 Fold Change (+BP/-BP)” value is reported as 0.84 fold. B12 was tested, and the “EC50 (nM) in the Presence” value was 0.055 nM and the “EC50 Fold Change (+BP/-BP)” value was 0.5 fold. In the case of B13, the “EC50 (nM) in the Presence” value is reported as 0.11 nM and the “EC50 Fold Change (+BP/-BP)” value is reported as 1.45 fold. In the case of B14, the “EC50 (nM) in the Presence” value is reported as 0.43 nM and the “EC50 Fold Change (+BP/-BP)” value is reported as 3.31 fold.
